± gives the standard error.

In the supplement of paper PMC9428881 one finds background-corrected fluorescence data, which are given here for 28 sequences.

The nature of the data set: background-corrected fluorescence of 3'-dye-labeled ssDNA relative to brightest sequence (3'-GCGCG) (fraction); higher = brighter dye fluorescence (less quenching). How it is done:
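Single-stranded DNA is synthesized in situ on glass microarrays by 5'->3' photolithographic synthesis, with a Cy3 or Cy5 phosphoramidite coupled at the 3' end next to all 1024 permuted pentamers P1-P5. The construct is 5'-T5-(ACGT minus P5..P1 trinucleotides)-T15-P5P4P3P2P1-dye-3'; the dye is a 3' terminal modification, not part of the sequence. Arrays were scanned at 532 nm (Cy3) or 635 nm (Cy5), background from unlabeled oligos was subtracted, and values are averaged over 10 replicate features per array and at least 3 independent syntheses.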

Turning to “TTTTTTGCTGAGCATCAGCATTTTTTTTTTTTTTTACTGT [TGTCA]”, the background-corrected fluorescence is, setting by setting: (dye: Cy3 (3' terminal)) 0.63 ± 0.027; (dye: Cy5 (3' terminal)) 0.45 ± 0.06.

For “TTTTTGCAGCATGCTGCGCATTTTTTTTTTTTTTTTTAAT [TAATT]”, the background-corrected fluorescence (dye: Cy3 (3' terminal)) was 0.576 ± 0.018 and the background-corrected fluorescence (dye: Cy5 (3' terminal)) is 0.412 ± 0.019.

In turn, “TTTTTTGCTCATCATCATGATTTTTTTTTTTTTTTAGGGC [CGGGA]” showed a background-corrected fluorescence (dye: Cy3 (3' terminal)) of 0.598 ± 0.023 and a background-corrected fluorescence (dye: Cy5 (3' terminal)) of 0.478 ± 0.064.

Consider “TTTTTTCATCATCATGATCATTTTTTTTTTTTTTTGGGCG [GCGGG]”, for which the background-corrected fluorescence by setting is: (dye: Cy3 (3' terminal)) 0.69 ± 0.031; (dye: Cy5 (3' terminal)) 0.521 ± 0.062.

As for “TTTTTGCATGATGATGAGCATTTTTTTTTTTTTTTTCCCT”, the background-corrected fluorescence was 0.472 ± 0.027 (dye: Cy3 (3' terminal)) and 0.317 ± 0.026 (dye: Cy5 (3' terminal)).

“TTTTTTGCTCAGCATGATGATTTTTTTTTTTTTTTAGTCC [CCTGA]”: the background-corrected fluorescence runs as follows: (dye: Cy3 (3' terminal)) 0.41 ± 0.024; (dye: Cy5 (3' terminal)) 0.329 ± 0.04.

In the case of “TTTTTTCATGCTGCTCATGATTTTTTTTTTTTTTTGAAGC [CGAAG]”, the background-corrected fluorescence runs as follows: (dye: Cy3 (3' terminal)) 0.547 ± 0.024; (dye: Cy5 (3' terminal)) 0.397 ± 0.027.

Take “TTTTTTCATGCTCAGCAGCATTTTTTTTTTTTTTTGAGTT”: the background-corrected fluorescence is 0.621 ± 0.031 (dye: Cy3 (3' terminal)) and 0.422 ± 0.024 (dye: Cy5 (3' terminal)).

As for “TTTTTTGCTCATCATGATGCTTTTTTTTTTTTTTTAGGCA [ACGGA]”, the background-corrected fluorescence reads like this: (dye: Cy3 (3' terminal)) 0.584 ± 0.0074; (dye: Cy5 (3' terminal)) 0.463 ± 0.017.

“TTTTTTGATGATGCGCAGCATTTTTTTTTTTTTTTCCATT [TTACC]”: the background-corrected fluorescence is 0.541 ± 0.041 (dye: Cy3 (3' terminal)) and 0.357 ± 0.02 (dye: Cy5 (3' terminal)).

For “TTTTTTGCGCATGATCATCATTTTTTTTTTTTTTTATCGG [GGCTA]”, the background-corrected fluorescence came to 0.609 ± 0.022 (dye: Cy3 (3' terminal)) and 0.504 ± 0.027 (dye: Cy5 (3' terminal)).

As to “TTTTTTCATGATGCTGCGCATTTTTTTTTTTTTTTGCAAT [TAACG]”, the background-corrected fluorescence (dye: Cy3 (3' terminal)) stood at 0.53 ± 0.018 and the background-corrected fluorescence (dye: Cy5 (3' terminal)) is 0.406 ± 0.027.

The sequence “TTTTTTGATCATCATGCTGCTTTTTTTTTTTTTTTCGGAA [AAGGC]” displayed a background-corrected fluorescence (dye: Cy3 (3' terminal)) of 0.656 ± 0.032 and a background-corrected fluorescence (dye: Cy5 (3' terminal)) of 0.548 ± 0.058.

With “TTTTTGCATGATGAGCAGCATTTTTTTTTTTTTTTTCCTT”, the background-corrected fluorescence (dye: Cy3 (3' terminal)) is 0.435 ± 0.027 and the background-corrected fluorescence (dye: Cy5 (3' terminal)) turned out to be 0.351 ± 0.029.

On to “TTTTTTGATCATCATCATCATTTTTTTTTTTTTTTCGGGG [GGGGC]”, for which the background-corrected fluorescence is, setting by setting: (dye: Cy3 (3' terminal)) 0.673 ± 0.024; (dye: Cy5 (3' terminal)) 0.65 ± 0.044.

As to “TTTTTGCATGCTGCGCATGCTTTTTTTTTTTTTTTTAATA [ATAAT]”, the background-corrected fluorescence (dye: Cy3 (3' terminal)) was determined as 0.56 ± 0.0062 and the background-corrected fluorescence (dye: Cy5 (3' terminal)) amounted to 0.458 ± 0.047.

As to “TTTTTTGCTGAGCATGCTCATTTTTTTTTTTTTTTACTAG [GATCA]”, the background-corrected fluorescence came out at 0.554 ± 0.029 (dye: Cy3 (3' terminal)) and 0.433 ± 0.025 (dye: Cy5 (3' terminal)).

For the sequence “TTTTTTCATGCTGATGCTGATTTTTTTTTTTTTTTGACAC [CACAG]”, the background-corrected fluorescence is, setting by setting: (dye: Cy3 (3' terminal)) 0.42 ± 0.0058; (dye: Cy5 (3' terminal)) 0.321 ± 0.044.

With “TTTTTTCATGATGATGAGCATTTTTTTTTTTTTTTGCCCT [TCCCG]”, the background-corrected fluorescence (dye: Cy3 (3' terminal)) turned out to be 0.449 ± 0.021 and the background-corrected fluorescence (dye: Cy5 (3' terminal)) was 0.329 ± 0.019.

As for “TTTTTTGCTGCGCATGATGCTTTTTTTTTTTTTTTAATCA [ACTAA]”, the background-corrected fluorescence worked out at 0.489 ± 0.025 (dye: Cy3 (3' terminal)) and 0.382 ± 0.028 (dye: Cy5 (3' terminal)).

Turning to “TTTTTTGCTGATGCGCATGATTTTTTTTTTTTTTTACATC [CTACA]”, the background-corrected fluorescence was 0.392 ± 0.027 (dye: Cy3 (3' terminal)) and 0.322 ± 0.018 (dye: Cy5 (3' terminal)).

With “TTTTTGCAGCATGATGCGCATTTTTTTTTTTTTTTTTCAT [TACTT]”, the background-corrected fluorescence (dye: Cy3 (3' terminal)) was 0.519 ± 0.033 and the background-corrected fluorescence (dye: Cy5 (3' terminal)) came to 0.378 ± 0.021.

As to “TTTTTTGATGCTGCTCAGCATTTTTTTTTTTTTTTCAAGT [TGAAC]”, the background-corrected fluorescence (dye: Cy3 (3' terminal)) is 0.629 ± 0.0081 and the background-corrected fluorescence (dye: Cy5 (3' terminal)) was found to be 0.478 ± 0.039.

In turn, “TTTTTTGATCAGCATCATCATTTTTTTTTTTTTTTCGTGG [GGTGC]” had a background-corrected fluorescence (dye: Cy3 (3' terminal)) of 0.622 ± 0.021 and a background-corrected fluorescence (dye: Cy5 (3' terminal)) of 0.483 ± 0.033.

Sequence “TTTTTTGCGCATGCTGCGCATTTTTTTTTTTTTTTATAAT [TAATA]” yielded a background-corrected fluorescence (dye: Cy3 (3' terminal)) of 0.567 ± 0.0072 and a background-corrected fluorescence (dye: Cy5 (3' terminal)) of 0.418 ± 0.026.

Take “TTTTTTCAGCATGCTGATGATTTTTTTTTTTTTTTGTACC [CCATG]”: the background-corrected fluorescence was 0.434 ± 0.028 (dye: Cy3 (3' terminal)) and 0.311 ± 0.017 (dye: Cy5 (3' terminal)).

Consider “TTTTTTGATGAGCATGCTGCTTTTTTTTTTTTTTTCCTAA [AATCC]”, for which the background-corrected fluorescence turned out to be 0.538 ± 0.015 (dye: Cy3 (3' terminal)) and 0.432 ± 0.031 (dye: Cy5 (3' terminal)).

As for “TTTTTGCATGCTGAGCATCATTTTTTTTTTTTTTTTACTG [GTCAT]”, the background-corrected fluorescence by setting is: (dye: Cy3 (3' terminal)) 0.499 ± 0.024; (dye: Cy5 (3' terminal)) 0.373 ± 0.027.
